# Article PMC7829508, “Binding of Campylobacter jejuni FliW Adjacent to the CsrA RNA-Binding Pockets Modulates CsrA Regulatory Activity” (Frontiers in Microbiology, 2020)
# T1: FliW-His6 (C. jejuni, UniProt Q0P9H9 1-129)
# T1 construct: FliW of Campylobacter jejuni, fliW cloned into pET-20b(+) (pET-20b-FliW-His6, Li et al., 2018); also called C. jejuni FliW
# T1 sequence (looked up): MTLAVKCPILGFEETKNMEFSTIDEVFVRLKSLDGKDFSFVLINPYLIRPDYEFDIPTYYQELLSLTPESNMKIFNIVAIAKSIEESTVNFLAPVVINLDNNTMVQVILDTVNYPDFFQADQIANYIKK
# Tests used:
# FliW-His6 (C. jejuni) = FliW-His6 (C. jejuni) (UniProt Q0P9H9); assay: SPR; BIAcore T100; FliW-His6 amine-coupled to CM5 chip; CsrA-His6 injected at 0-500 nM, 30 μL/min, 180 s association, 600 s dissociation; 20 mM phosphate buffer, 0.05% Tween 20, pH 7.4; bivalent analyte model, constant of the first binding event (KD1)
# FliW-His6 = molecular target: T1, FliW-His6; assay: as above; settings: both partners purified
Molecule,"KD of the first ligand binding site (KD1, bivalent analyte model) (FliW-His6 (C. jejuni)) [nM]","KD of the first ligand binding site (KD1, bivalent analyte model) (FliW-His6) [nM]"
CsrA-N55A-His6 (from UniProt P0DPD4 1-75) (natural protein),93,
"CsrA-WT-His6 (natural protein, C. jejuni 81-176, UniProt P0DPD4 1-75, looked up, CsrA of Campylobacter jejuni, 75 amino acids; csrA cloned into pET-20b(+) (pET-20b-CsrA-His6, Fields et al., 2016); also called CsrA-His6; source: purified as described previously (El Abbar et al., 2019); not shown: His6, C-terminal, kept) MLILSRKENESIIIGEGIEIKVVQTGKGYAKIGIEAPKSLMILRKELVQQVKDENLHSVVQNDIKLDDLSKKLIK",,9
"CsrA-V51A-His6 (natural protein, C. jejuni 81-176, UniProt P0DPD4 1-75, looked up, CsrA of Campylobacter jejuni, 75 amino acids, with V51A; point mutation cloned into pET20b (El Abbar et al., 2019); source: purified as described previously (El Abbar et al., 2019); not shown: His6, C-terminal, kept) MLILSRKENESIIIGEGIEIKVVQTGKGYAKIGIEAPKSLMILRKELVQQAKDENLHSVVQNDIKLDDLSKKLIK",,52
